From patent US20210015931A1 (KOREA INSTITUTE OF SCIENCE AND TECHNOLOGY, published 2021)

Biological target: T1, CD47 receptors on HT-29 cells (human-derived colon cancer cells) (human, UniProt Q08722 19-323)
T1 construct: whole, on cells
Experiment: confocal microscopy on HT-29 cells, uptake with and without CD47 antibody
Description: It was investigated whether the fusion protein-siRNA complex prepared in Example 2 is effectively taken up into cells in vitro. First, 2×10⁵ HT-29 cells, which are human-derived colon cancer cells, were seeded onto a 35-mm cover glass bottom dish. Then, after adding SIRPα protein (SIRPα), CD47 siRNA or the fusion protein-siRNA complex prepared in Example 2 (SIPRα-CD47 siRNA), the cells were cultured at 37° C. for a day. Then, CD47 SiRNA was stained red by using the TOTO3 stain. Next, after treating with the fusion protein-siRNA complex separated and purified in Example 2 at a concentration of 100 pmol/mL, the cells were cultured for 4 hours in a carbon dioxide incubator at 37° C. Then, the cells were treated with a fixative and the SIRPα protein was stained green using FITC-labeled His-tag antibody. After staining the nuclei of the cells by treating with a 4′,6-diamidino-2-phenylindole (DAPI) solution for 10 minutes, fluorescence was measured by confocal microscopy.
A mixture solution of the fusion protein-siRNA complex prepared in Example 2 and the CD47 antibody (Ab) was used as a control group.

T1 sequence (Q08722 19-323): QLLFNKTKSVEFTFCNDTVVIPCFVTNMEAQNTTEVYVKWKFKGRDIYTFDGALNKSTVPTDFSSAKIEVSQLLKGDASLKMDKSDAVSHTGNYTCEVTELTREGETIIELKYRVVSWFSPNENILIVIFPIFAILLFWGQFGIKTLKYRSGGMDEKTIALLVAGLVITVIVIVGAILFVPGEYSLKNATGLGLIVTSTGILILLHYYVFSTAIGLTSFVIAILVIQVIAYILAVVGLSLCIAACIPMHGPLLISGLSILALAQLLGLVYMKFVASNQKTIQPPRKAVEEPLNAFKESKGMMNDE

binding result: binds
B1: fusion protein-siRNA complex prepared in Example 2 (SIRPα-CD47 siRNA) (other)
chain: EEELQIIQPDKSVLVAAGETATLRCTITSLFPVGPIQWFRGAGPGRVLIYNQRQGPFPRVTTVSDTTKRNNMDFSIRIGNITPADAGTYYCIKFRKGSPDDVEFKSGAGTELSVRAKPVDGGFLGGGGCG
modifications: CD47 siRNA (sense SEQ ID NO: 17, antisense SEQ ID NO: 18) bound 1:1 through maleimide at the 3'-end of the sense strand to the thiol group of the cysteine at the end of the fusion protein
notes: The protein was expressed from pET28a in E. coli, purified on a His-tag column and detected with a His-tag antibody; also called SIPRα-CD47 siRNA; immunoregulatory protein-siRNA complex
